From PMC12538065

Tested on: Zn(II)-bound Fur homodimer (Escherichia coli (expressed in MC4100))
Assay: HinfI restriction site protection
Settings: 0.5 uM (as monomer) sufficient to protect, not a Kd, 2 mM Mg2+, 3.2 nM pUC19-iuc, 20 mM Tris pH 8.0, 150 mM NaCl, 2 mM MgCl2, 0.1 mg/ml BSA, 10 min at room temperature, then HinfI (1 unit) 37 C 10 min

For pUC19-iuc (Fur-box of iucABCD promoter), which binding is on record?
The binding was 0.5 µM.
